# Results reported in the MegaScale stability set (Tsuboyama et al. 2023).
# B1: EEHEE_rd4_0763 (parent)
# chain: LTVHVGNVTYHFDNPEQAEEWAKRMAKKYQGQIHVKDGQFRIE
# Variants of: B1
# Assay: folding stability dG (cDNA display proteolysis); higher = more stable
# Conditions: PBS, room temperature
row,Variant,folding stability dG [kcal/mol]
1,LTVHVGNVTYHFDNPEQAEEWAKTMAKKYQGQIHVKDGQFRIE [R24T],1.45
2,LTVHVGNVTYHFDNPEQAEEWAKAMAKKYQGQIHVKDGQFRIE [R24A],1.68
3,LTVHVGNVTYHFDNPEQAEEWAKFMAKKYQGQIHVKDGQFRIE [R24F],1.79
4,LTVHVGNVTYHFDNPEQAEEWAKRMAKKFQGQIHVKDGQFRIE [Y29F],1.53
5,LTVHVGNVTYHFDNPEQAEEWAKRMAKKMQGQIHVKDGQFRIE [Y29M],1.35
6,LTVHVGNVTYHFDNPEQAEEWAKRMAKKVQGQIHVKDGQFRIE [Y29V],1.27
7,LTVHVGNVTYHFDNPEQAEEWAKRMAKKYQGQIHVKDGQFRKE [I42K],0.942
8,LTVHVGNVTYHFDNPEQAEEWAKRMAKKYQGQIHVKDGQFRSE [I42S],1.06
9,LTVHVGNVTYHFDNPEQAEEWAKRMAKKYQGQIHVKDGQFRTE [I42T],1.08
10,LTVHVGNVTYHFDNPEQAEEWAKRMAKKYQGQIHVKDGQFRRE [I42R],0.894
11,LTVHVGNVTYHFDNPEQAEEWAKRMAKKYQGQIHVKDGQFRGE [I42G],1.2
12,LGVHVGNVTYHFDNPEQAEEWAKRMAKKYQGQIHVKDGQFRIE [T2G],0.823
13,LRVHVGNVTYHFDNPEQAEEWAKRMAKKYQGQIHVKDGQFRIE [T2R],1.48
14,LQVHVGNVTYHFDNPEQAEEWAKRMAKKYQGQIHVKDGQFRIE [T2Q],1.53
15,LIVHVGNVTYHFDNPEQAEEWAKRMAKKYQGQIHVKDGQFRIE [T2I],1.59
16,LTVHVGNVTYCFDNPEQAEEWAKRMAKKYQGQIHVKDGQFRIE [H11C],2.74
17,LTVHVGNVTYTFDNPEQAEEWAKRMAKKYQGQIHVKDGQFRIE [H11T],1.67
18,LTVHVGNVTYAFDNPEQAEEWAKRMAKKYQGQIHVKDGQFRIE [H11A],1.31
19,LTVHVGNVTYGFDNPEQAEEWAKRMAKKYQGQIHVKDGQFRIE [H11G],0.755
20,LTVHVGNVTYFFDNPEQAEEWAKRMAKKYQGQIHVKDGQFRIE [H11F],1.75
21,LTVHVGNVTYHFDNPEQAEEQAKRMAKKYQGQIHVKDGQFRIE [W21Q],0.239
22,LTVHVGNVTYHFDNPEQAEEWAKRMAKKYQGQIHVFDGQFRIE [K36F],1.79
23,LTVHVGNVTYHFDNPEQAEEWAKRMAKKYQGQIHVSDGQFRIE [K36S],1.69
24,LTVHVGNVTYHFDNPEQAEEWAKRMAKKYQGGIHVKDGQFRIE [Q32G],1.01

row,Variant,folding stability dG [kcal/mol]
1,LTVHVGNVTYHFDNPEQAEEWAKRMAKKYQGPIHVKDGQFRIE [Q32P],0.998
2,LTVHVGNVTYHFDNPEQAEEWAKRMAKKYQGDIHVKDGQFRIE [Q32D],1.27
3,LTVHVGNVTYHFDNPEQAEEWAKRMAKKYQGTIHVKDGQFRIE [Q32T],1.99
4,LTVHVGNVTYHFDNPSQAEEWAKRMAKKYQGQIHVKDGQFRIE [E16S],1.61
5,LTVHVGNVTYHFDNPTQAEEWAKRMAKKYQGQIHVKDGQFRIE [E16T],1.68
6,LTVHVGNVTYHFDNPEQAEEWAKRMAKKYQPQIHVKDGQFRIE [G31P],0.572
7,LTVHVGNVTYHFDNPEQAEEWAKRMAKKYQAQIHVKDGQFRIE [G31A],1.86
8,LTVHVGNVTYHFDNPEQAEEWAKRMAKKYQRQIHVKDGQFRIE [G31R],1.07
9,LTVHVGNVTYHFDNPEIAEEWAKRMAKKYQGQIHVKDGQFRIE [Q17I],1.51
10,LTVHVGNVTYHFDNPEKAEEWAKRMAKKYQGQIHVKDGQFRIE [Q17K],1.63
11,LTVHVGNVTYHFDNPEQAEEWAKRMAKKYQGQIHVKDGPFRIE [Q39P],0.884
12,LTVHVGNVTYHFDNPEQAEEWAKRTAKKYQGQIHVKDGQFRIE [M25T],0.731
13,LTVHVGNVTYHFDNPEQAEEWAKRGAKKYQGQIHVKDGQFRIE [M25G],0
14,LTVHVGNVTYHFDNPEQAEEWAKRSAKKYQGQIHVKDGQFRIE [M25S],0.407
15,LTVHVGNVTYHFDNPEQAEEWAKRCAKKYQGQIHVKDGQFRIE [M25C],2.03
16,LTVHVGNVTYHFDNPEQAEEWAKRKAKKYQGQIHVKDGQFRIE [M25K],0.502
17,LTVHVGNVTYHFDNPEQAEEWAKRAAKKYQGQIHVKDGQFRIE [M25A],0.874
18,LTVHVGNVTYHFDNPEQAEEWAKRMAKKYQGQIHVKDSQFRIE [G38S],0.873
19,LTVHVGNVTYHFDNPEQAEEWAKRMAKKYQGQIHVKDFQFRIE [G38F],1.1
20,LTVHVGNVTYHFDNPEQAEEWAKRMAKKYQGQIHVKDKQFRIE [G38K],0.828
21,LTVHVGKVTYHFDNPEQAEEWAKRMAKKYQGQIHVKDGQFRIE [N7K],1.65
22,LTVHVGCVTYHFDNPEQAEEWAKRMAKKYQGQIHVKDGQFRIE [N7C],2.65
23,LTVHVGWVTYHFDNPEQAEEWAKRMAKKYQGQIHVKDGQFRIE [N7W],1.65
24,LTVHVGNVCYHFDNPEQAEEWAKRMAKKYQGQIHVKDGQFRIE [T9C],2.01

row,Variant,folding stability dG [kcal/mol]
1,LTVHVLNVTYHFDNPEQAEEWAKRMAKKYQGQIHVKDGQFRIE [G6L],1.47
2,LTVHVFNVTYHFDNPEQAEEWAKRMAKKYQGQIHVKDGQFRIE [G6F],1.84
3,LTVHVGNVTYHFDNPEQAEEWAKRMAKKYQGQIHVKDGQFRIH [E43H],1.44
4,LTVHVGNVTYHFDNPEQAEEWAKRMAKKYQGQIHVKDGQFRIN [E43N],1.06
5,LTVHVGNVTYHFDNPEQAEEWAKRMAKKYQGQIHVKDGQFRIG [E43G],1.26
6,LTVHVGNVTYHFDNPEQDEEWAKRMAKKYQGQIHVKDGQFRIE [A18D],0.132
7,LTVHVGNVTYHFDNPEQFEEWAKRMAKKYQGQIHVKDGQFRIE [A18F],1.46
8,LTVHVGNVTYHFDNPEQAEEWAKRMAKKYPGQIHVKDGQFRIE [Q30P],1.19
9,LTVHVGNVTYHFDNPEQAEEWAKRMAKKYLGQIHVKDGQFRIE [Q30L],1.39
10,LTVHVGNVTYHFDNPEQAEEWAKRMAKKYFGQIHVKDGQFRIE [Q30F],1.43
11,LTVHVGNVTYHFRNPEQAEEWAKRMAKKYQGQIHVKDGQFRIE [D13R],1.47
12,LTVHVGNVTYHFLNPEQAEEWAKRMAKKYQGQIHVKDGQFRIE [D13L],1.51
13,LTVHVGNVTYHFGNPEQAEEWAKRMAKKYQGQIHVKDGQFRIE [D13G],1.37
14,LTVHVGNKTYHFDNPEQAEEWAKRMAKKYQGQIHVKDGQFRIE [V8K],1.74
15,LTVHVGNETYHFDNPEQAEEWAKRMAKKYQGQIHVKDGQFRIE [V8E],1.36
16,LTVHVGNRTYHFDNPEQAEEWAKRMAKKYQGQIHVKDGQFRIE [V8R],1.96
17,LTVHVGNQTYHFDNPEQAEEWAKRMAKKYQGQIHVKDGQFRIE [V8Q],1.58
18,LTVHVGNATYHFDNPEQAEEWAKRMAKKYQGQIHVKDGQFRIE [V8A],1.58
19,LTVHVGNVTYHFDNPEQAEEWACRMAKKYQGQIHVKDGQFRIE [K23C],2.37
20,LTVHVGNVTYHFDNPEQAEEWASRMAKKYQGQIHVKDGQFRIE [K23S],1.16
21,LTVHVGNVTYHFDNPEQAEEWANRMAKKYQGQIHVKDGQFRIE [K23N],1.38
22,LTVHVGNVTYHFDNGEQAEEWAKRMAKKYQGQIHVKDGQFRIE [P15G],1.23
23,LTVHVGNVTYHFDNVEQAEEWAKRMAKKYQGQIHVKDGQFRIE [P15V],1.71
24,LTVHVGNVTYHFDNLEQAEEWAKRMAKKYQGQIHVKDGQFRIE [P15L],1.86

row,Variant,folding stability dG [kcal/mol]
1,LTVHVGNVTYHFDNNEQAEEWAKRMAKKYQGQIHVKDGQFRIE [P15N],1.38
2,LTVHVGNVTYHFDHPEQAEEWAKRMAKKYQGQIHVKDGQFRIE [N14H],1.57
3,LTVHVGNVTYHFDKPEQAEEWAKRMAKKYQGQIHVKDGQFRIE [N14K],1.6
4,LTVHVGNVTYHFDEPEQAEEWAKRMAKKYQGQIHVKDGQFRIE [N14E],1.36
5,LTVHVGNVTYHFDTPEQAEEWAKRMAKKYQGQIHVKDGQFRIE [N14T],1.76
6,LTNHVGNVTYHFDNPEQAEEWAKRMAKKYQGQIHVKDGQFRIE [V3N],0.243
7,LTSHVGNVTYHFDNPEQAEEWAKRMAKKYQGQIHVKDGQFRIE [V3S],0.339
8,LTIHVGNVTYHFDNPEQAEEWAKRMAKKYQGQIHVKDGQFRIE [V3I],1.09
9,LTVHVGNVTYHFDNPEQAEEWAKRMAKKYQGQVHVKDGQFRIE [I33V],1.59
10,LTVHVGNVTYHFDNPEQAEEWAKRMAKKYQGQQHVKDGQFRIE [I33Q],0.795
11,LTVHVGNVTYHFDNPEQAEEWAKRMAKKYQGQGHVKDGQFRIE [I33G],0.819
12,LTVHVGNVTYHFDNPEQAEEWAKRMAKKYQGQIHCKDGQFRIE [V35C],2.27
13,LTVHVGNVTYHFDNPEQAEEWAKRMAKKYQGQIHRKDGQFRIE [V35R],1.08
14,LTVHVGNVTYHFDNPEQAEEWAKRMAKKYQGQIHMKDGQFRIE [V35M],1.61
15,LTVHVGNVTYHFDNPEQAMEWAKRMAKKYQGQIHVKDGQFRIE [E19M],2.07
16,LTVHVGNVTYHFDNPEQAAEWAKRMAKKYQGQIHVKDGQFRIE [E19A],1.71
17,LTVHVGNVTYHFDNPEQAPEWAKRMAKKYQGQIHVKDGQFRIE [E19P],0.646
18,LTVHVGNVTYHFDNPEQATEWAKRMAKKYQGQIHVKDGQFRIE [E19T],1.41
19,LTVHVGNVTYHFDNPEQAEEWAKRMANKYQGQIHVKDGQFRIE [K27N],1.39
20,LTVHVGNVTYHFDNPEQAEEWAKRMAMKYQGQIHVKDGQFRIE [K27M],1.74
21,LTVHVGNVTYHFDNPEQAEEWAKRMAKKYQGQIFVKDGQFRIE [H34F],1.87
22,LTVHVGNVTVHFDNPEQAEEWAKRMAKKYQGQIHVKDGQFRIE [Y10V],0.913
23,LTVHVGNVTRHFDNPEQAEEWAKRMAKKYQGQIHVKDGQFRIE [Y10R],1.18
24,LTVHVGNVTGHFDNPEQAEEWAKRMAKKYQGQIHVKDGQFRIE [Y10G],0.153

row,Variant,folding stability dG [kcal/mol]
1,LTVHVGNVTCHFDNPEQAEEWAKRMAKKYQGQIHVKDGQFRIE [Y10C],1.77
2,LTVHVGNVTYHFDNPEQAEEWAKRMMKKYQGQIHVKDGQFRIE [A26M],1.28
3,LTVHVGNVTYHFDNPEQAEEWAKRMEKKYQGQIHVKDGQFRIE [A26E],0.642
4,LTVHSGNVTYHFDNPEQAEEWAKRMAKKYQGQIHVKDGQFRIE [V5S],0.647
5,LTVHGGNVTYHFDNPEQAEEWAKRMAKKYQGQIHVKDGQFRIE [V5G],0.415
6,LTVHNGNVTYHFDNPEQAEEWAKRMAKKYQGQIHVKDGQFRIE [V5N],0.616
7,LTVHRGNVTYHFDNPEQAEEWAKRMAKKYQGQIHVKDGQFRIE [V5R],0.733
8,LTVHVGNVTYHFDNPEQAEEWVKRMAKKYQGQIHVKDGQFRIE [A22V],1.23
9,LTVHVGNVTYHFDNPEQAEEWSKRMAKKYQGQIHVKDGQFRIE [A22S],0.821
10,LTVHVGNVTYHFDNPEQAEEWNKRMAKKYQGQIHVKDGQFRIE [A22N],0.383
11,LTVHVGNVTYHFDNPEQAEEWQKRMAKKYQGQIHVKDGQFRIE [A22Q],0.611
12,LTVHVGNVTYHFDNPEQAEEWAKRMAKKYQGQIHVKDGQFDIE [R41D],1.34
13,LTVHVGNVTYHKDNPEQAEEWAKRMAKKYQGQIHVKDGQFRIE [F12K],-0.024
14,LTVHVGNVTYHVDNPEQAEEWAKRMAKKYQGQIHVKDGQFRIE [F12V],0.101
15,LTVHVGNVTYHFDNPEQAEVWAKRMAKKYQGQIHVKDGQFRIE [E20V],1.35
16,LTVHVGNVTYHFDNPEQAEPWAKRMAKKYQGQIHVKDGQFRIE [E20P],-0.521
17,LTVHVGNVTYHFDNPEQAELWAKRMAKKYQGQIHVKDGQFRIE [E20L],1.69
18,LTVHVGNVTYHFDNPEQAECWAKRMAKKYQGQIHVKDGQFRIE [E20C],2.44
19,LTVHVGNVTYHFDNPEQAEGWAKRMAKKYQGQIHVKDGQFRIE [E20G],1.18
20,LTVHVGNVTYHFDNPEQAERWAKRMAKKYQGQIHVKDGQFRIE [E20R],1.81
21,LTVHVGNVTYHFDNPEQAEEWAKRMAKKYQGQIHVKLGQFRIE [D37L],1.12
22,LTVHVGNVTYHFDNPEQAEEWAKRMAKKYQGQIHVKHGQFRIE [D37H],0.769
